This test concerns the target human hair (hair keratin) (human). Description: quantitative hair binding assay, peroxidase coupled via the His tag, TMB.

B1: KBD-B (keratin-binding domain B of human desmoplakin), His-tagged, expressed from pQE30-KBD-B (SEQ ID No.: 166) (protein)
chain: MRGSHHHHHHGSACELEPHTGLLLLSVQKRSMSFQGIRQPVTVTELVDSGILRPSTVNELESGQISYDEVGERIKDFLQGSSCIAGIYNETTKQKLGIYEAMKIGLVRPGTALELLEAQAATGFIVDPVSNLRLPVEEAYKRGLVGIEFKEKLLSAERAVTGYNDPETGNIISLFQAMNKELIEKGHGIRLLEAQIATGGIIDPKESHRLPVDIAYKRGYFNEELSEILSDPSDDTKGFFDPNTEENLTYLQLKERCIKDEETGLCLLPLKEKKKQVQTSQKNTLRKRRVVIVDPETNKEMSVQEGVDLQPSLIS
Regarding B1, the absorption at 405 nm came out at 0.65 A405 nm.
